According to article PMC7744550, “Structurally distinct telomere-binding proteins in Ustilago maydis execute non-overlapping functions in telomere replication, recombination, and protection”:

Key:
[1] = biological target: T1, Tay1-FG (Ustilago maydis) (UniProt A0A0D1CTG7); test: EMSA; conditions: 25 mM HEPES-KOH pH 7.5, 5% glycerol, 3 mM MgCl2, 0.1 mM EDTA, 1 mM DTT, 0.5 µg/µl BSA, 1-10 nM 32P probe, 22 °C 15 min; 6% native PAGE in 0.2x TBE
T1 sequence: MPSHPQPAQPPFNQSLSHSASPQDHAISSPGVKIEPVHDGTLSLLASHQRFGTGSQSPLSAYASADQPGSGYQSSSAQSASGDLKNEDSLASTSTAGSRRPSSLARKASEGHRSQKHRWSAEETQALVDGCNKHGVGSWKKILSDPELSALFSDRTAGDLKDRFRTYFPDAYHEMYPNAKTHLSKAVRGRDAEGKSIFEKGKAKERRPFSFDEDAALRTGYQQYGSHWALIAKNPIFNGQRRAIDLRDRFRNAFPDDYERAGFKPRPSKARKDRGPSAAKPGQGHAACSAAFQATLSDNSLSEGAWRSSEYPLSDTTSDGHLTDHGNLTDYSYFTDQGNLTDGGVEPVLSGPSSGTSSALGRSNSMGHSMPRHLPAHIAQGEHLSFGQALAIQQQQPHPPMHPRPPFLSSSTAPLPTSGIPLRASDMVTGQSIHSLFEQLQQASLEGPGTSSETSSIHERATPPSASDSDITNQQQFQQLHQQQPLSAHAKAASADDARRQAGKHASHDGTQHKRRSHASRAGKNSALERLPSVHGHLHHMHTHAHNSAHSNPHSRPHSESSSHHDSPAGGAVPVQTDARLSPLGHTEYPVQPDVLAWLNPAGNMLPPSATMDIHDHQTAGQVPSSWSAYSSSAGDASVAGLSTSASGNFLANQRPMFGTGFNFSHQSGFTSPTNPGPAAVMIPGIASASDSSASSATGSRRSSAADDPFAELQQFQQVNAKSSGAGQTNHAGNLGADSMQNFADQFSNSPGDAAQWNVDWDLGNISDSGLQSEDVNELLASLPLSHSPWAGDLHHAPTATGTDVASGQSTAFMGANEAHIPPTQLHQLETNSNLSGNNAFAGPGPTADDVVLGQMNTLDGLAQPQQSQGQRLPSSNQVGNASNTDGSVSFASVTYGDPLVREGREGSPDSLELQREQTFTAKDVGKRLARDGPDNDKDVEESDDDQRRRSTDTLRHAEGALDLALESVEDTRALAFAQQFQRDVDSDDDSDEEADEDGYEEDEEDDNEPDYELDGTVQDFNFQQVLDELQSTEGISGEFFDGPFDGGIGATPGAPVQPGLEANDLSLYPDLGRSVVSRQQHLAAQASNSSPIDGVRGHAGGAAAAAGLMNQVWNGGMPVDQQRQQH

[2] = biological target: T2, Tay1N274-FG (Ustilago maydis) (UniProt A0A0D1CTG7); test: EMSA; conditions: 25 mM HEPES-KOH pH 7.5, 5% glycerol, 3 mM MgCl2, 0.1 mM EDTA, 1 mM DTT, 0.5 µg/µl BSA, 1-10 nM 32P probe, 22 °C 15 min; 6% native PAGE in 0.2x TBE
T2 sequence: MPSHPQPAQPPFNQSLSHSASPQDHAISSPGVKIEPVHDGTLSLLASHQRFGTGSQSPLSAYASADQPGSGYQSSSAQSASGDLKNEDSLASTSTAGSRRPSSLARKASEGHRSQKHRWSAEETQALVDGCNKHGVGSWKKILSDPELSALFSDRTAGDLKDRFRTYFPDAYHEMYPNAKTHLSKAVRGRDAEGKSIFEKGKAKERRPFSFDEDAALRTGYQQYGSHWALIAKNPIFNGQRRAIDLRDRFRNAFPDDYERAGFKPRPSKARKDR

[3] = biological target: T3, Trf2∆N-FG3 (Ustilago maydis) (UniProt A0A0D1E1Z3); test: EMSA; conditions: 25 mM HEPES-KOH pH 7.5, 5% glycerol, 3 mM MgCl2, 0.1 mM EDTA, 1 mM DTT, 0.5 µg/µl BSA, 1-10 nM 32P probe, 22 °C 15 min; 6% native PAGE in 0.2x TBE
T3 sequence: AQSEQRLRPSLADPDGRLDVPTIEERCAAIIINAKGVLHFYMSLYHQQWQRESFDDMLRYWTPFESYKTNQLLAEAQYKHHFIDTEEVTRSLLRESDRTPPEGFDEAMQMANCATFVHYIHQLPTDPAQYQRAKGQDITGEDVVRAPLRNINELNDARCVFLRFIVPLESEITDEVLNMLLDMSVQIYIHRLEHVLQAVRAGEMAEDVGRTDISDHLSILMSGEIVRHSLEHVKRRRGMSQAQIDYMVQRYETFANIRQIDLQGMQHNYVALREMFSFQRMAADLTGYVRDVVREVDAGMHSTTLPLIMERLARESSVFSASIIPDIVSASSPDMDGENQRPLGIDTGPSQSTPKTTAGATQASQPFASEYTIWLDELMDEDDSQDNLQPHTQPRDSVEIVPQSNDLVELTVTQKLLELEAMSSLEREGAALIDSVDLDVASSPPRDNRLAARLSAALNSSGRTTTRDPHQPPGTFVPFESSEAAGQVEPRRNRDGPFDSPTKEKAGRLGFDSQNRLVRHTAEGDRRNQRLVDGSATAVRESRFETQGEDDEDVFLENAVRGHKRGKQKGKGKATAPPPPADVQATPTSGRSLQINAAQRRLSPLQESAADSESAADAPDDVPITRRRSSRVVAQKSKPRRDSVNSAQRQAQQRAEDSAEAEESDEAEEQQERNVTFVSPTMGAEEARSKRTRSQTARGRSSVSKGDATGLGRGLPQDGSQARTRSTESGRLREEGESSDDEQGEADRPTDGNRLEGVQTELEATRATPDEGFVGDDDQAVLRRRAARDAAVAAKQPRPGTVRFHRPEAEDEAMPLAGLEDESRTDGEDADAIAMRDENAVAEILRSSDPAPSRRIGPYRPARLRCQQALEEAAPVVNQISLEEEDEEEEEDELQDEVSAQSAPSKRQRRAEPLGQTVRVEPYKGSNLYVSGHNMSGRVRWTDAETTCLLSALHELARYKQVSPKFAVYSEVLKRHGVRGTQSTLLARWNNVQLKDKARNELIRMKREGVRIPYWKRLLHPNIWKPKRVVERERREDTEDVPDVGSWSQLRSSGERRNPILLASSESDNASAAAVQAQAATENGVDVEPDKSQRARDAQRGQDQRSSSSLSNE

[4] = biological target: Blm-FG (Ustilago maydis)
[5] = biological target: Trf2∆N-FG3 (Ustilago maydis, UniProt A0A0D1E1Z3 416-1528); test: EMSA; 25 mM HEPES-KOH pH 7.5, 5% glycerol, 3 mM MgCl2, 0.1 mM EDTA, 1 mM DTT, 0.5 µg/µl BSA, 1-10 nM 32P probe, 22 °C 15 min; 6% native PAGE in 0.2x TBE; conditions: protein: recombinant; tags: C-terminal FG3 (His-SUMO cleaved by ULP1)
[6] = biological target: Tay1-FG (Ustilago maydis, UniProt A0A0D1CTG7 1-1127); test: competition; unlabeled competitor; 25 mM HEPES-KOH pH 7.5, 5% glycerol, 3 mM MgCl2, 0.1 mM EDTA, 1 mM DTT, 0.5 µg/µl BSA, 1-10 nM 32P probe, 22 °C 15 min; 6% native PAGE in 0.2x TBE; conditions: protein: recombinant; tags: C-terminal FLAG (His-SUMO cleaved by ULP1); blunt

TTAGGGTTAGGGTTAGGGTTAGGG (double strand) [TTAGGG4 ds]
Kd [1]: 27 nM
Kd [2]: 130 nM
Kd [3]: 20 nM

Tay1-FG (natural protein)
helicase activity of Blm (12.5 nM) on a non-telomeric DNA substrate with Tay1 at 0, 10, 30 and 90 nM [4]: 2.5 fold

B1: TTAGGG4 G-strand (ssDNA)
DNA: TTAGGGTTAGGGTTAGGGTTAGGG
binding result [5]: no binding

B2: CgTEL (dsDNA)
DNA 1: TGGGGTCTGGGTGCTG
DNA 2: CAGCACCCAGACCCCA
binding result [6]: no binding
